B1: ATP-dependent RNA helicase DDX19B (Homo sapiens), Q9UMR2-1 (parent)
chain: MATDSWALAVDEQEAAAESLSNLHLKEEKIKPDTNGAVVKTNANAEKTDEEEKEDRAAQSLLNKLIRSNLVDNTNQVEVLQRDPNSPLYSVKSFEELRLKPQLLQGVYAMGFNRPSKIQENALPLMLAEPPQNLIAQSQSGTGKTAAFVLAMLSQVEPANKYPQCLCLSPTYELALQTGKVIEQMGKFYPELKLAYAVRGNKLERGQKISEQIVIGTPGTVLDWCSKLKFIDPKKIKVFVLDEADVMIATQGHQDQSIRIQRMLPRNCQMLLFSATFEDSVWKFAQKVVPDPNVIKLKREEETLDTIKQYYVLCSSRDEKFQALCNLYGAITIAQAMIFCHTRKTASWLAAELSKEGHQVALLSGEMMVEQRAAVIERFREGKEKVLVTTNVCARGIDVEQVSVVINFDLPVDKDGNPDNETYLHRIGRTGRFGKRGLAVNMVDSKHSMNILNRIQEHFNKKIERLDTDDLDEIEKIAN

Variants of: B1
Conditions: with NUP214, P35658-1
Sequence of NUP214, P35658-1 (P35658 whole entry): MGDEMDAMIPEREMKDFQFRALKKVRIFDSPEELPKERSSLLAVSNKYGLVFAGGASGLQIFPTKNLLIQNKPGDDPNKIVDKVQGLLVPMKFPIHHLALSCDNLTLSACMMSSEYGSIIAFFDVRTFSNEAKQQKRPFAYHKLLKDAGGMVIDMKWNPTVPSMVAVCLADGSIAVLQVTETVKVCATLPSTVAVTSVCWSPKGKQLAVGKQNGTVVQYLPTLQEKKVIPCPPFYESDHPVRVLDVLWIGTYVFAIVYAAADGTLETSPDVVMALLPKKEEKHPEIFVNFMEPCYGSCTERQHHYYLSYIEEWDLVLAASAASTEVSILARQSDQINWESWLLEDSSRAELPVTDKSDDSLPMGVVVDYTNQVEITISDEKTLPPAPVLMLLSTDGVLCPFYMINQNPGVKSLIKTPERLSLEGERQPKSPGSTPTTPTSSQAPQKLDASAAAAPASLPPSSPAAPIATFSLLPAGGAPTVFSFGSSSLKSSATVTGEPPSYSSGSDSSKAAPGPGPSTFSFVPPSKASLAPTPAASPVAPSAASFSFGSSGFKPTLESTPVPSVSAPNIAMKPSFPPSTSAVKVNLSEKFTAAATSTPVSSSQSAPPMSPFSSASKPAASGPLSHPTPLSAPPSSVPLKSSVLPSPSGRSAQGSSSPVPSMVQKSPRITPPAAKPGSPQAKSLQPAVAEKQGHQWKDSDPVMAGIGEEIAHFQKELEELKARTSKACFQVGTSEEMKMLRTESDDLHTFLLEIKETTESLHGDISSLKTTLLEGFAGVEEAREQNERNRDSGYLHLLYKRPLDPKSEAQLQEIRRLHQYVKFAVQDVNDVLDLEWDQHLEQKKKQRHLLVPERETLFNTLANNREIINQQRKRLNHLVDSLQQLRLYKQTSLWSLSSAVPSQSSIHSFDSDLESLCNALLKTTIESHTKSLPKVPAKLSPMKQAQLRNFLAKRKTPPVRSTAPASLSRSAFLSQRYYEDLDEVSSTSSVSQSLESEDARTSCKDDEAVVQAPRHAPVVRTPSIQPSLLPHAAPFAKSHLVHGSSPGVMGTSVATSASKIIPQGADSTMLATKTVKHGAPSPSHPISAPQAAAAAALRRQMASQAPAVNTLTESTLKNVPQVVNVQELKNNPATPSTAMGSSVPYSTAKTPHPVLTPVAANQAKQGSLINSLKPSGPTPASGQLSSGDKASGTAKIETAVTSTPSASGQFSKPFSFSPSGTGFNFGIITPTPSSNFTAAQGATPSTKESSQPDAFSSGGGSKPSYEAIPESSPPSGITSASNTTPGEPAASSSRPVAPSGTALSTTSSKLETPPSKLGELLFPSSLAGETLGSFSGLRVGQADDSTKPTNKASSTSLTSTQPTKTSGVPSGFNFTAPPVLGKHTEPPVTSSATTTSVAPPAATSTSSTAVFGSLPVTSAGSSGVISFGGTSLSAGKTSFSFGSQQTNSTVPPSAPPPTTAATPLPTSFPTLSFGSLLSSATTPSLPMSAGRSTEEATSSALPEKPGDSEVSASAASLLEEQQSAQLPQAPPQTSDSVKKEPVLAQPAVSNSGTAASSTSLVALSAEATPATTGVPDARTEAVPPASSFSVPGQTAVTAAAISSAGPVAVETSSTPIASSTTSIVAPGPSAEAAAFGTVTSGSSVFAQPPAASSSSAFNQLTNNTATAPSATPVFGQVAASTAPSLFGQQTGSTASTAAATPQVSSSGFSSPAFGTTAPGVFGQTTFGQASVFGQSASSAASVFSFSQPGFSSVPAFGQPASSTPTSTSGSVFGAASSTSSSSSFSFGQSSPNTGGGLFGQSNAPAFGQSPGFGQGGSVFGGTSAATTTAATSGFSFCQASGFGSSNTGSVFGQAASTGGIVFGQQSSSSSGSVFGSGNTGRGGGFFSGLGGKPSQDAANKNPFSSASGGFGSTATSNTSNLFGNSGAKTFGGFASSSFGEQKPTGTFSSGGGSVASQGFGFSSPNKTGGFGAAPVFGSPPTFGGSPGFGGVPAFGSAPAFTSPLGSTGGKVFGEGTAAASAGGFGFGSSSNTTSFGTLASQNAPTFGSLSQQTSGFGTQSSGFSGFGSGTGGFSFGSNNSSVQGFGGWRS

Effect of a mutation on the interaction, disrupting interaction:
R259D
R262A
I258A
D223R
